Data published in patent US20150259666.

Molecular target: Human PAI-1 (plasminogen activator inhibitor-1), P05121
Sequence (P05121 whole entry, looked up): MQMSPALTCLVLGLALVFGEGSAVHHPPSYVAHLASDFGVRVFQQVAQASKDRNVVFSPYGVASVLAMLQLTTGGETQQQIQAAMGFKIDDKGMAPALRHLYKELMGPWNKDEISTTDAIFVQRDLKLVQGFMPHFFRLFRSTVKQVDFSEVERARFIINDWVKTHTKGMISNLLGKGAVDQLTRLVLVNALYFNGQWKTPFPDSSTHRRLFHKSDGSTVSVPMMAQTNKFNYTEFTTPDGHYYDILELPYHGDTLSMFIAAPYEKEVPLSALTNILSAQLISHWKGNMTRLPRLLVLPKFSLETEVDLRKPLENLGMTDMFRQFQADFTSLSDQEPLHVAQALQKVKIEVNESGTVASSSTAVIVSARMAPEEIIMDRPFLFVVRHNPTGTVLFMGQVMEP

B1: full length t-PA (native human tissue plasminogen activator) (protein)
chain: SYQVICRDEKTQMIYQQHQSWLRPVLRSNRVEYCWCNSGRAQCHSVPVKSCSEPRCFNGGTCQQALYFSDFVCQCPEGFAGKCCEIDTRATCYEDQGISYRGTWSTAESGAECTNWNSSALAQKPYSGRRPDAIRLGLGNHNYCRNPDRDSKPWCYVFKAGKYSSEFCSTPACSEGNSDCYFGNGSAYRGTHSLTESGASCLPWNSMILIGKVYTAQNPSAQALGLGKHNYCRNPDGDAKPWCHVLKNRRLTWEYCDVPSCSTCGLRQYSQPQFRIKGGLFADIASHPWQAAIFAKHRRSPGERFLCGGILISSCWILSAAHCFQERFPPHHLTVILGRTYRVVPGEEEQKFEVEKYIVHKEFDDDTYDNDIALLQLKSDSSRCAQESSVVRTVCLPPADLQLPDWTECELSGYGKHEALSPFYSERLKEAHVRLYPSSRCTSQHLLNRTVTDNMLCAGDTRSGGPQANLHDACQGDSGGPLVCLNDGRMTLVGIISWGLGCGQKDVPGVYTKVTNYLDWIRDNMRP
residual enzyme activity after 1 hour incubation with PAI-1 (PAI-1 resistance): Full length t-PA preserve the enzyme activity up to 54%
